The supplement of paper PMC10724198
± gives the standard deviation of the averaged measurements.

Tested on: Saccharomyces cerevisiae
Test: protein stability index of tFT-peptide fusion (C-terminal peptide) (PSI (0-1 scale)); higher = more stable (slower turnover)
Details: genetic background: wild type; temperature: 30 C
Experimental: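 Multiplexed protein stability (MPS) profiling in S. cerevisiae. Random 12-aa peptides (tFT-X12 library) are fused to the C-terminus of a sfGFP-mCherry tandem fluorescent timer, after mCherry and a GGGS linker. Cells are FACS-sorted into 8 mCherry/sfGFP bins and deep-sequenced. The protein stability index (PSI) is the read-weighted bin average, scaled from 0 (unstable) to 1 (stable). Only peptides with >10 reads are reported; cells were grown at 30 °C in SC-His with glucose.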
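Further: PSI is a weighted mean of sequencing reads over stability bins, variants kept only with over 10 reads, mCherry proximal and sfGFP distal, peptide attached via GGGS linker.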

Sequence	protein stability index
GVEVAGCPGARG	0.655 ± 0.042
GVFCHILAFLWC	0.512 ± 0.019
GVFFVRAGSVYC	0.579 ± 0.019
GVFHAWAWCCGF	0.78 ± 0.099
GVGAALDVWRRR	0.696 ± 0.033
GVGGAGIGVGMG	0.705 ± 0.032
GVGGCVMGVGRV	0.64763 ± 0.00048
GVGGFLGVVGVG	0.5857 ± 0.0019
GVGGGISGGRWG	0.666 ± 0.088
GVGGGSRGVCLG	0.638 ± 0.094
GVGGVCEMVAIK	0.506 ± 0.028
GVGLGGFGVWGV	0.73 ± 0.074
GVGLGRVWVKLG	0.708 ± 0.06
GVGLWGVGFRGG	0.7 ± 0.034
GVGSGNMEEEGQ	0.679 ± 0.034
GVGSTGAKTVRG	0.693 ± 0.018
GVGWGSRGVCLG	0.659 ± 0.095
GVLHPPARPPPL	0.654 ± 0.024
GVLVFGLGLVRD	0.623 ± 0.027
GVLVGGERRWVL	0.699 ± 0.053
GVQDEERYSRSE	0.6563 ± 0.0063
GVRATRMGGGPL	0.706 ± 0.015
GVRVRAGYDVRA	0.6619 ± 0.0033
GVSLLCLFLGSP	0.6212 ± 0.0041
GVTDRGIDCGIK	0.658 ± 0.023

Sequence	protein stability index
GVTNRQMAWCFS	0.606 ± 0.071
GVVGGGEDRWSV	0.738 ± 0.032
GVVGGWRGAGWR	0.736 ± 0.064
GVVGWTAGLRGG	0.734 ± 0.045
GVVLVARVTGSS	0.662 ± 0.075
GVVNSGVFGINS	0.693 ± 0.054
GVVRGEAGVIGR	0.817 ± 0.087
GVVWMSCGGWGG	0.764 ± 0.028
GVWAVGGGGGGR	0.665 ± 0.069
GVWCDIVLPGVM	0.704 ± 0.052
GVWFWRLKGEGN	0.713 ± 0.045
GVWGGVGGWGVA	0.697 ± 0.053
GVWTRTWSLQWI	0.561 ± 0.015
GWGCCWSVAWTF	0.614 ± 0.026
GWGGSTLRGVRR	0.719 ± 0.03
GWRACGRGLVGK	0.712 ± 0.011
GWRGGCRSGVPE	0.665 ± 0.064
GWRVSQVLGGDR	0.741 ± 0.042
GWRVVWAVCGHF	0.597 ± 0.092
GWSLDYGSTGDR	0.812 ± 0.018
GWSSSCTATRSA	0.743 ± 0.045
GWSWGGVRTGSC	0.841 ± 0.092
GWVNKQVVTEAH	0.728 ± 0.085
GWVPDGCVGSIG	0.653 ± 0.069
GWVREAVGFRGG	0.687 ± 0.028

Sequence	protein stability index
GWVVGGGRLGVV	0.723 ± 0.095
GWVVGRGRLGVV	0.655 ± 0.028
GYDEREKPVLLR	0.753 ± 0.042
GYEDTLKKILEI	0.673 ± 0.099
GYGNQLILAISN	0.576 ± 0.021
GYGRLVSSQSFR	0.888 ± 0.16
GYKLSIQGYNRK	0.675 ± 0.014
GYLFLGNMTRHN	0.737 ± 0.016
GYLLGCGCGWSG	0.621 ± 0.034
GYRKREMRGELQ	0.678 ± 0.038
GYSYTEFPPEAV	0.708 ± 0.08
HAPFPPLLVSSL	0.625 ± 0.022
HATFLPGLLTIS	0.566 ± 0.026
HDPPPPPPLPRP	0.626 ± 0.024
HDSAGVCFHYWL	0.644 ± 0.011
HEGPGTTEFLGL	0.717 ± 0.059
HFAMCSTTFVIT	0.618 ± 0.029
HFLVGPLSPLLS	0.662 ± 0.019
HGFSRFAACNGV	0.666 ± 0.0071
HGLDPRRGPSGA	0.68426 ± 0.00044
HGQGWRPTYLSI	0.796 ± 0.1
HGRGVEYGVCDN	0.6776 ± 0.0066
HIAKQSSRRRRR	0.68 ± 0.029
HICFPALKPGGA	0.6401 ± 0.0039
HIWQEADGMDTE	0.679 ± 0.022

Sequence	protein stability index
HKAPLLQLTADM	0.662 ± 0.028
HKGKELTNNAML	0.678 ± 0.039
HKHDAVIIGREC	0.7024 ± 0.0042
HKKATRPPTGGN	0.604 ± 0.052
HLAHVCYEVPTY	0.568 ± 0.04
HLFSLGSCLSDP	0.731 ± 0.12
HLGVLDSFLAEG	0.629 ± 0.028
HLIVPESVVHDL	0.747 ± 0.18
HLLGYSLRREFL	0.67 ± 0.054
HLPPSRPSFSAP	0.747 ± 0.015
HLPSHPSLPPAP	0.707 ± 0.029
HLSHVLLGITFV	0.603 ± 0.026
HLSPAPPPPSAP	0.706 ± 0.11
HLTCVVGRDLGI	0.606 ± 0.015
HMHTSKTFSNGP	0.738 ± 0.093
HNSTKTQSLRGT	0.719 ± 0.016
HPPHPPPLPGSP	0.802 ± 0.076
HPPHPPPSPCPP	0.733 ± 0.034
HPPPARSPPSLP	0.741 ± 0.041
HPPPFRSIPEPQ	0.678 ± 0.019
HPPVFFSPCGIL	0.634 ± 0.033
HPSARLPENRTP	0.677 ± 0.038
HPSPLHLPSPPP	0.675 ± 0.0076
HPTFARIPPIPP	0.525 ± 0.0088
HPTHTPPSTHRD	0.7316 ± 0.0053

Sequence	protein stability index
HPTLPPHPPPHP	0.768 ± 0.036
HPTRHPPTPPCY	0.704 ± 0.018
HQCVNLNTIKWV	0.634 ± 0.021
HQVSLVLGGYLL	0.702 ± 0.0099
HRCQRGLIARPR	0.665 ± 0.016
HRGAVRGGSEIW	0.729 ± 0.033
HRTKRPKTKRPP	0.628 ± 0.036
HRYRWPGLNSRL	0.837 ± 0.12
HSFNITSESQKI	0.653 ± 0.0066
HSLPPLRPYPSP	0.7553 ± 0.00076
HSLRLPPSVHFP	0.6797 ± 0.004
HSLRPPPPPAPT	0.7146 ± 0.0045
HSNGADTFSEGE	0.648 ± 0.033
HSPILQPSLPHP	0.71 ± 0.022
HSPPRPPFHPRF	0.70091 ± 0.0004
HSRPAAPCRSPL	0.679 ± 0.013
HSRRCDGLPGWV	0.671 ± 0.03
HSTGPRPKLGCQ	0.827 ± 0.019
HSYMFIRNTIRI	0.6281 ± 0.0031
HSYSPRSLLVDP	0.727 ± 0.039
HTGKAATRKVIK	0.634 ± 0.024
HTKNCTRAVSDR	0.673 ± 0.085
HTPPLPPPPDPT	0.723 ± 0.061
HTPPPPRHPYKH	0.741 ± 0.055
HVGEVESGGMGG	0.707 ± 0.03

Sequence	protein stability index
HVLFPLHPNRIP	0.6609 ± 0.0016
HVMLPFTGIGKF	0.672 ± 0.06
HVNGQWEANRRT	0.697 ± 0.048
HVPQPNTVCPHL	0.754 ± 0.033
HVTRGMTHLTLF	0.635 ± 0.036
HVTSTRGARRPS	0.715 ± 0.019
HVVSSGFLVGLG	0.671 ± 0.039
HWSMRVNRTEGG	0.663 ± 0.055
HWYFARTSTVSC	0.5505 ± 0.0015
HYLYSLLVLPPL	0.658 ± 0.046
IAATTVVRPAFC	0.66 ± 0.0083
IACPPSVIFSPH	0.713 ± 0.058
IAEFRRDKIVKR	0.706 ± 0.07
IAFFFLHIPPAF	0.569 ± 0.076
IAGKAIKNMTRR	0.676 ± 0.052
IAGRPSSGFPLL	0.686 ± 0.066
IALVFCPMNGRI	0.686 ± 0.014
IARENLNRSRFS	0.6602 ± 0.0056
IATDGARCACDP	0.688 ± 0.022
IATMSVAGGPRL	0.677 ± 0.015
ICGAGPKCCCSV	0.635 ± 0.051
